# B1: B. subtilis ClpCDWB (E280A/E618A), catalytically inactive mutant (enzyme, UniProt P37571 1-810, looked up)
# chain: MMFGRFTERAQKVLALAQEEALRLGHNNIGTEHILLGLVREGEGIAAKALQALGLGSEKIQKEVESLIGRGQEMSQTIHYTPRAKKVIELSMDEARKLGHSYVGTEHILLGLIREGEGVAARVLNNLGVSLNKARQQVLQLLGSNETGSSAAGTNSNANTPTLDSLARDLTAIAKEDSLDPVIGRSKEIQRVIEVLSRRTKNNPVLIGEPGVGKTAIAEGLAQQIINNEVPEILRDKRVMTLDMGTVVAGTKYRGEFEDRLKKVMDEIRQAGNIILFIDALHTLIGAGGAEGAIDASNILKPSLARGELQCIGATTLDEYRKYIEKDAALERRFQPIQVDQPSVDESIQILQGLRDRYEAHHRVSITDDAIEAAVKLSDRYISDRFLPDKAIDLIDEAGSKVRLRSFTTPPNLKELEQKLDEVRKEKDAAVQSQEFEKAASLRDTEQRLREQVEDTKKSWKEKQGQENSEVTVDDIAMVVSSWTGVPVSKIAQTETDKLLNMENILHSRVIGQDEAVVAVAKAVRRARAGLKDPKRPIGSFIFLGPTGVGKTELARALAESIFGDEESMIRIDMSEYMEKHSTSRLVGSPPGYVGYDEGGQLTEKVRRKPYSVVLLDAIEKAHPDVFNILLQVLEDGRLTDSKGRTVDFRNTILIMTSNVGASELKRNKYVGFNVQDETQNHKDMKDKVMGELKRAFRPEFINRIDEIIVFHSLEKKHLTEIVSLMSDQLTKRLKEQDLSIELTDAAKAKVAEEGVDLEYGARPLRRAIQKHVEDRLSEELLRGNIHKGQHIVLDVEDGEFVVKTTAKTN
# What was measured:
# [1] = target: the molecule itself; assay: negative-stain EM
# [2] = target: the molecule itself; assay: cryo-EM structure
# [3] = target: the molecule itself; assay: cryo-EM structure; remark: listed apart in the source
protein,measurement,setting,value
B1,stoichiometry N,[1],10
same,stoichiometry N,[2],24
same,stoichiometry N,[3],6
